The results in this text go back to US20230192845A1.

Where a chain is given by its changes, count along the chain named.

The target in the experiment is T1, hCD96-humanIgG1 fusion protein (human) (UniProt P40200).
T1 sequence: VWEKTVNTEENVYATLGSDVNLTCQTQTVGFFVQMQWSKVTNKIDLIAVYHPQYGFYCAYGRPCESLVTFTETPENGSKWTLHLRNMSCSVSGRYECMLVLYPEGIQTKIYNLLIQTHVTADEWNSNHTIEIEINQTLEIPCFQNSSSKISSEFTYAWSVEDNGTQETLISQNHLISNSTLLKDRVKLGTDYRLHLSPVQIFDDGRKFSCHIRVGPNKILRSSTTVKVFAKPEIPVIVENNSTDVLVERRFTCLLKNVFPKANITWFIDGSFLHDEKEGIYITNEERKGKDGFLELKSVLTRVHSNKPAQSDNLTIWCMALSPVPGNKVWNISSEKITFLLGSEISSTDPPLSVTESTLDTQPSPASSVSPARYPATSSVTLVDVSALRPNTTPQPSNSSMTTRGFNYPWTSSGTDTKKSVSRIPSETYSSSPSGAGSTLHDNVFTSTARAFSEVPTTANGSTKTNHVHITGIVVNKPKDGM
Description: SPR (Biacore), hCD96-hFc captured by anti-huFc. (Surface plasmon resonance follows binding to a sensor surface in real time, without labels.)

B1: BL006-19-21G1-21K1 (antibody, V domains shown)
VH: QVQLQQPGAELVKPGASVKMSCKASGYTFISYWITWVKQRPGQGLEWIGDIYPGSGHTNYNEKFKSKATLTVDTSSSTAYMQLSSLTSEDSAVYYCARPTVEAMDYWGQGTSVTVSS
VL: QIVLTQSPAIMSASPGEKVTMTCSASSSVNYMHWYQQRSGTSPKRWIYDTSKLASGVPARFSGSGSGTSYSLTISSMEAEDAATYYCQQWSNNPLTFGAGTKLELK
Take B1: the Kd was found to be 6.75 nM, the koff was 0.000988 s⁻¹ and the association rate constant (kon) stood at 146000 M⁻¹ s⁻¹.

B2: BL006-19-370G9-370K16 (antibody, V domains shown)
VH: QVQLQQSGAELGRPGTSVKMSCKAAGYTFTNYWIGWVKQRPGHGLEWIGDIYPGGGYTNYNEKFKGKATLTADTSSSTAYIQLSSLTSEDSAIYYCARSGYYDGSPLAMDYWGQGTSVTVS
VL: B1 VL with A9T, N30S, R38K, N92S, L95P, A99S, L105I
B2 gave a Kd of 42.3 nM, a dissociation rate constant (koff) of 0.00193 s⁻¹ and a kon of 45500 M⁻¹ s⁻¹.

B3: BL006-9-1G1-1K1 (antibody, V domains shown)
VH: EVKLVESGGGLVKPGGSLKLSCAASGFTFSSYAMSWVRQTPERGLEWVAAIQSNGGSTFYPDTVKDRFTISRDNAKNTLYLQMSSLRSEDTALYYCVRGPFDYWGQGTTLTVSS
VL: QIVLTQSPAIMSASPGQKVTIPCSASSSVNYIHWFQQKLGSSPKLWIYDTSKLTPGVPARFSGSGSGTSYSLTISSMEAEDAASYFCHQWRSYPPTFGGGTKLEIK
Consider B3, for which the dissociation constant Kd was 0.198 nM, the koff turned out to be 0.00016 s⁻¹ and the kon came to 810000 M⁻¹ s⁻¹.

B4: BL006-19-183G3-183K4 (antibody, V domains shown)
VH: QVTLNESGPGILQPSQTLSLTCSFSGFSLTTYGMGVGWIRQPSGKSLEWLANIWWTEDKYYNSALKSRLTISTDTSHNQVFLKISSVDTEDTATYYCAQMGPEVYSAMDYWGQGTSVTVSS
VL: DIVMTPSQKFMSTTVGDRVSITCKASQNVGTAVAWYQQKPGHSPKLLIYSASNRNTGVPDRFTGSGSGTDFTLTISNMQSEDLADYFCHQYSRYPWTFGGGTKLEIK
Molecule B4 had a dissociation constant (Kd) of 0.45 nM, an off-rate constant (koff) of 0.000296 s⁻¹ and an association rate constant (kon) of 656000 M⁻¹ s⁻¹.

B5: BL006-4-61G5-61K1 (antibody, V domains shown)
VH: EVKLEESGGGLVQPGGSMKLSCVASGFTFSNYWMNWVRQSPEKGLEWVAQIRFKSDNYATHYAESVKGRFTISRDDSKSSVYLQMHNLRAEDTGIYYCTEFAYWGQGTLVTVSA
VL: QILLTQSPAIMSASPGEKVTMTCSASSRVNSRFLNWYQQKSGVSPKLWIYGTSNLASGVPARFSGSGSGTSYSLTISSVEAEDVATYYCQQYQSDPPITFGAGTRLELI
As to B5, the equilibrium dissociation constant (Kd) turned out to be 0.364 nM, the koff was determined as 0.000153 s⁻¹ and the association rate constant (kon) was found to be 420000 M⁻¹ s⁻¹.

B6: BL006-19-352G9-352K8 (antibody, V domains shown)
VH: QVQLQQPGAELVKPGASVKLSCKASGYTFTSYWMHWVKQRPGQGLEWIGMIHPNGDITDYNEKFKSKATLAVDESSSTAFMQLNSLTSEDSAFYYCARASYYGSLYWGQGTTLTVSS
VL: DIVMTQSQKFMSTSVGDRVSVTCKASQNVGIAVAWYQKKPGQSPKTLIYSASTRYTGVPDRFTGSGSGTDFTLTINDVQSEDLADYFCQQYGSSPLTFGAGTKLELK
Take B6: the Kd stood at 23.4 nM, the dissociation rate constant (koff) was 0.000796 s⁻¹ and the kon was determined as 34100 M⁻¹ s⁻¹.

B7: BL006-19-134G5-134K4 (antibody, V domains shown)
VH: QVQLQQPGAELVKPGASVKLSCKASDYTFTTYWMHWVKQRPGQGLEWIGMIHPNSDTTLYNEKFRSQATLTVDKSSSTAYIQLSRLTSEDSAVYYCVVTGTNFDYWGQGTTLAVSS
VL: QVVLTQSPAIMSASPGEKVTMTCSATSSVSYMYWYQQKPGSSPKPWIYRTSNLASGVPVRFSGSGSGTSYSLTISSMEAEDAATYYCQQWSSNPLTFGGGTKLELK
B7 gave a dissociation constant Kd of 0.707 nM, a koff of 9.88e-05 s⁻¹ and a kon of 140000 M⁻¹ s⁻¹.

B8: BL006-19-363G1-363K1 (antibody, V domains shown)
VH: B7 VH with D26G, M34I, H52L, D56G, L59I, T78A, I81M, V97A, A113T
VL: B7 VL with V2I, T26S, S66F, S76N, G99T
The molecule B8 had a Kd of 3.5 nM, a koff of 0.000585 s⁻¹ and a kon of 167000 M⁻¹ s⁻¹.

B9: BL006-19-55G10-55K7 (antibody, V domains shown)
VH: QVQLQQSGAEVVRPGTSVKMSCKAAGYTFTDNWIDWVKQRPGHGLDWIGNIFPGGNYTNYNEKFKGKATLTADTSSSTAYMQLINLTSEDSAIYYCVRAVADSQFAYWGQGTLVTVSA
VL: B7 VL with V2I, A13V, T26S, S28R, S30T, G99A
On to B9, for which the dissociation constant (Kd) was determined as 3.45 nM, the off-rate (koff) worked out at 0.000501 s⁻¹ and the kon was found to be 145000 M⁻¹ s⁻¹.

B10: BL006-9-15G1-15K5 (antibody, V domains shown)
VH: QAYLQQSGAELVRPGASVKMSCKASGYTFTSYNMHWVKQTPRQGLEWIGAVIPGNGDSFYNQKFKGKATLTVDKSSSTAYMQLSSLTSEDSAVYFCGRSSSGCIAYWGQGTLVTVSA
VL: DIVLTQSPASLAVSLGQRATISCRVSGSVDYDGDSYMNWYQQKPGQPPKLLIYAASNLESGIPARFSGSGSETDFTLNIHPVEEEDAATYYCLQSNEAPWTFGGGTKVEIK
B10 returned an equilibrium dissociation constant (Kd) of 4.6 nM, a dissociation rate constant (koff) of 0.00275 s⁻¹ and a kon of 598000 M⁻¹ s⁻¹.

B11: BL006-19-29G5-29K1 (antibody, V domains shown)
VH: QVTLKESGPGILQSSQTLSLTCSFSGFSLSTFGMGVSWIRKPSGKGLEWLAHIFWDDDKRYNPSLKSRLTISKDTSSNQVFLMINSMDIADTATYYCTRGSNWFAYWGQGTLVTVSA
VL: DIVLTQSPASLAVSLGQRATISCRASESVDSYGNSFMHWYQQKPGQPPKLLIYRASNLESGIPARFSGSGSRTDFTLTINPVEADDVATYYCQQSNEDPLTFGAGTKLELK
Consider B11, for which the dissociation constant Kd came to 0.182 nM, the koff stood at 0.000163 s⁻¹ and the on-rate (kon) was 896000 M⁻¹ s⁻¹.

B12: BL006-4-31G1-31K3 (antibody, V domains shown)
VH: QVQLQQSGPELVKPGASVKISCKTSGFTFTDYYINWVKQRPGQGLEWIGWIFPGSGSSFYSEIFKGQATLTVDKSSSTAYMLLSSLTSEDSAVYFCARRNYYGYGAYAMDYWGQGTSVTVSS
VL: DIQMNQSPSSLSASLGDTITITCRASQSINFWLSWYQQKPGNIPKLLIYKASNLHTGVPSRFSGSGSGTDFTLTISSLQPEDIATYYCLQGQSYPLTFGGGTKLEIK
In turn, B12 had a Kd of 13.2 nM, a koff of 0.0007 s⁻¹ and an association rate constant (kon) of 53100 M⁻¹ s⁻¹.

B13: BL006-4-52G6-52K7 (antibody, V domains shown)
VH: QVQLQQPGAELVKPGASVKLSCKASGYSFTSYWMHWVKQRPGQGLEWIGQIDPSDSYTNYNQKFKGKATLTVDKSSSTAYMQLSSLTSEDSAVYYCASGNYGPYLGNYFDYWGQGTTLTVPS
VL: DIVMSQSPSSLVVSVGEKVTMSCKSSQSLLHSTNQKNYLAWYQQKPGQSPKLLIYWASTRESGVPDRFTGSGSGTDFTLTISSVKAEDLVVYYCQQYYNYPYTFGGGTKLEIK
As for B13, the Kd stood at 2.83 nM, the koff is 0.000363 s⁻¹ and the on-rate (kon) stood at 128000 M⁻¹ s⁻¹.

B14: BL006-11-5G1-5K3 (antibody, V domains shown)
VH: EVQLVESGGGLVKPGGSLKLSCAASGFTFSSYAMSWVRQTPEKRLEWVAAINTDGASTYFPATVKDRFTISRDNAKNTLYLQMSSLRSEDTALYYCARPLEPGSWFAYWGQGTLVTVSA
VL: DVLMTQTPLSLPVSLGDQASISCRSSQSIVHSNGNTYLEWYLQKPGQSPKVLIYKVSNRFSGVPDRISGSGSGTDFTLKISRVEAGDLGVYYCFQGSHVPYTFGGGTKLEIK
With B14, the dissociation constant (Kd) came to 3.47 nM, the koff was 0.000579 s⁻¹ and the kon worked out at 167000 M⁻¹ s⁻¹.

B15: BL006-8-3G9-3K4 (antibody, V domains shown)
VH: QVQLQQSGAELVRPGASVKLSCKASGYRFTDYEMEWVKQTPVHGLEWIGAIDPETGGTAYNQKFKGKATVTADKSSRTAYMELRSLTSEDSAVYYCTREGDGSYGAYWGQGTLVTVSA
VL: B14 VL with L3M, H31Y, V51L, I53M, I67F, G86E, V99A, Y101W
B15 came in with a Kd of 0.351 nM, a koff of 0.000192 s⁻¹ and a kon of 548000 M⁻¹ s⁻¹.

B16: BL006-4-20G5-20K5 (antibody, V domains shown)
VH: EVQLAESGGDLVTPGGSLKLSCAASGFTFSSYGMSWVRQTPDKRLEWVATITHGGSYIYYPDSVKGRFTLSRDNAKNTLYLQMSSLKSEDTAMYYCIRHADYARFAYWGQGTLVTVSA
VL: DIQMTQTTSSLSASLGDRVTISCRPSQDISNYLNWYQQKPDGTVKLLIYYTSRLHSGVPSRFSGSGSGTDYSLTISNLEQEDIATYFCQQGNTLPWTFGGGTKLEIK
For the molecule B16, the equilibrium dissociation constant (Kd) was found to be 0.825 nM, the koff turned out to be 0.00057 s⁻¹ and the on-rate (kon) came to 691000 M⁻¹ s⁻¹.

B17: BL006-19-190G4-190K6 (antibody, V domains shown)
VH: EVQLVESGGGLVQPGGSLKLSCAASGFTFSNYGMSWVRQTPDKRLELVATINSNGGSTYYPDSVKGRFTISRDNAKNTLYLQMSSLKSEDTAMYYCTKRGAWYFDVWGTGTTVTVSS
VL: DIQMTQSSSSFSVSLGDRVTITCKASEDIYNRLAWYQQKPGNAPRLLISSATSLETGVSSRFSGSGSGKDYTLSITSLQTEDVATYYCQQYWTTPTWTFGGGTKLEIK
On to B17, for which the Kd amounted to 2.97 nM, the off-rate constant (koff) is 0.000444 s⁻¹ and the association rate constant (kon) was 150000 M⁻¹ s⁻¹.

As a reminder, the Kd is the constant that tells how readily two partners part at equilibrium. Low readings indicate a tighter complex, high ones a looser complex. As a reminder, the koff is the rate constant with which the complex falls apart. A higher koff goes with fast dissociation. In general, kon refers to a measure of how fast the partners come together. The low end stands for slow association, the high end for fast association.
